Our source for the fold smaller Kd^app than PcTF values is paper PMC8928417.

This test has as its target biotinylated histone H3 peptide trimethylated at lysine 27, H3K27me3 (21–44), P68431. Kind of test: peptide or protein array.

B1: Pc2TF, bivalent polycomb-based transcription factor with the flexible linker (GGGGS)4, Q9HC52 1-62; Q9HC52 1-62 (designed binder)
chain: MELSAVGERVFAAEALLKRRIRKGRMEYLVKWKGWSQKYSTWEPEENILDARLLAAFEERERGGGGSGGGGSGGGGSGGGGSMELSAVGERVFAAEALLKRRIRKGRMEYLVKWKGWSQKYSTWEPEENILDARLLAAFEERER
modifications: not checked
On to B1, for which the fold smaller Kd^app than PcTF stood at 2 fold.
